Assay results taken from patent publication US20210063414A1, “METHODS FOR PREVENTING AND/OR TREATING BONE LOSS CONDITIONS BY MODULATING IRISIN” (Dana-Farber Cancer Institute, Inc., priority 2018, published 2021).

Assays:
[1] = biological target: T1, MLO-Y4 cell surface proteins (Mus musculus, UniProt P16675); experiment: Crosslinking/co-immunoprecipitation/mass spectrometry (TMT quantitative proteomics) to identify irisin receptors; assay type: binding; details: co-precipitated protein Ctsa (PPGB_MOUSE)
T1 construct: endogenous in cells; host or cells: MLO-Y4
T1 sequence (P16675 24-474): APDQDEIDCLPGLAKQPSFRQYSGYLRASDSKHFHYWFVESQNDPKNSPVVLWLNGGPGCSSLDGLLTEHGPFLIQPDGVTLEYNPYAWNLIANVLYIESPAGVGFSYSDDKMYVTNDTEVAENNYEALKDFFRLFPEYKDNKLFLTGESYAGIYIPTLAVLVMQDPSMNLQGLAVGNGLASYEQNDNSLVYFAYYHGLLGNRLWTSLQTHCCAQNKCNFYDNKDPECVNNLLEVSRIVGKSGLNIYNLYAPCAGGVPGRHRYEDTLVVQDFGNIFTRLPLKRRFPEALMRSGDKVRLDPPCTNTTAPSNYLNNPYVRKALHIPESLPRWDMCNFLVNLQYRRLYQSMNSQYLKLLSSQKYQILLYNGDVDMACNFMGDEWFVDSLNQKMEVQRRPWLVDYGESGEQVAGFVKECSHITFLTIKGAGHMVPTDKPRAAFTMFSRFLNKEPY
Outline: (§1)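 Relative protein abundance came from 6-plex TMT MS3 quantitation on an Orbitrap Fusion Lumos, after in-gel trypsin digestion of Coomassie-stained SDS-PAGE lanes. Input was a Ni-NTA pulldown (250 mM imidazole elution) of lysates from murine MLO-Y4 cells. These cells were treated on ice with His-tagged irisin or adipsin (10 nM, 20 min) in serum-free medium, then crosslinked with 1.5 mM DTSSP for 30 min.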

[2] = biological target: T2, MLO-Y4 cell surface proteins (Mus musculus, UniProt O88689); experiment: as above; assay type: binding; details: TMT ratio, Pcdha4 Protocadherin alpha-4
T2 construct: endogenous in cells; host or cells: MLO-Y4
T2 sequence (O88689 30-947): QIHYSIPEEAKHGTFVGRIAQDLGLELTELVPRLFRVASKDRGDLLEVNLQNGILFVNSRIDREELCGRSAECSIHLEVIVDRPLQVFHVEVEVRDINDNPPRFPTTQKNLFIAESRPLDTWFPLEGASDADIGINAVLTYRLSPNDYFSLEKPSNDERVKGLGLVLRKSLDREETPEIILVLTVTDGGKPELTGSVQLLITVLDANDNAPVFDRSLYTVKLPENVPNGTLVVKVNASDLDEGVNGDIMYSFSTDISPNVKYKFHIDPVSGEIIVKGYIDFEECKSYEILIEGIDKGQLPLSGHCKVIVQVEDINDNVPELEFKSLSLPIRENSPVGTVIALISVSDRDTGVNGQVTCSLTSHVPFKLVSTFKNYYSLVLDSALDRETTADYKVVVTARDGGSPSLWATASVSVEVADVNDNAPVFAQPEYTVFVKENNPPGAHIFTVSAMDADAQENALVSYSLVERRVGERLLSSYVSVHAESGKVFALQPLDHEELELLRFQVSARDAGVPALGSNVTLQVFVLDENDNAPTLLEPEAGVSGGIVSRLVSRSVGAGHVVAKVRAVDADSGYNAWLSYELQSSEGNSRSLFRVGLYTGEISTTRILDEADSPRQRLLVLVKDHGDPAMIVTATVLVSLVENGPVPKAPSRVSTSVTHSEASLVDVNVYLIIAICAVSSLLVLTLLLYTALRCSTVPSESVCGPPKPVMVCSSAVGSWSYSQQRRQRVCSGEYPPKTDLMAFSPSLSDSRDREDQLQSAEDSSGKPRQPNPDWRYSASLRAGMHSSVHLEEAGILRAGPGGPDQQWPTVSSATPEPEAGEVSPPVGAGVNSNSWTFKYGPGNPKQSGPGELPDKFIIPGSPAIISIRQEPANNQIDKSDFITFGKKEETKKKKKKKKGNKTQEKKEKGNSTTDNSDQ
Outline: as §1

B1: irisin: secreted cleaved form of FNDC5; recombinant human/mouse irisin with C-terminal his tag produced in HEK293 cells (protein)
chain: DSPSAPVNVTVRHLKANSAVVSWDVLEDEVVIGFAISQQKKDVRMLRFIQEVNTTTRSCALWDLEEDTEYIVHVQAISIQGQSPASEPVLFKTPREAEKMASKNKDEVTMKE
modifications: left off: small tags and cut ends
notes: secreted cleaved form of FNDC5; recombinant human/mouse irisin with C-terminal his tag produced in HEK293 cells
With B1 the TMT signal-to-noise ratio [1] was 111.377, the “irisin/adipsin TMT signal-to-noise ratio” value [1] was 0.311 and the irsin/adipsin [2] was 4.39.
